Source: PMC9239997, “Structural basis for mitoguardin-2 mediated lipid transport at ER-mitochondrial membrane contact sites” (Nature Communications, 2022)
[ ]: non-standard residue; d: D form. pS = N[C@@H](COP(=O)(O)O)C(=O)O

B3: MSP domain of mouse VAPB (residues 1-125) K87L/K118L (domain or fragment, UniProt Q9QY76 1-125, looked up)
chain: MAKVEQVLSLEPQHELKFRGPFTDVVTTNLKLGNPTDRNVCFKVKTTVPRRYCVRPNSGVIDAGASLNVSVMLQPFDYDPNEKSKHLFMVQSMFAPPDTSDMEAVWKEAKPEDLMDSLLRCVFEL
notes: VAPB, Mus musculus, MSP domain, residues 1-125, with K87L and K118L; also called mVAPB K87L/K118L
B4: MSP domain of mouse VAPB (residues 1-125) K43L/K45L (domain or fragment, UniProt Q9QY76 1-125, looked up)
chain: MAKVEQVLSLEPQHELKFRGPFTDVVTTNLKLGNPTDRNVCFLVLTTVPRRYCVRPNSGVIDAGASLNVSVMLQPFDYDPNEKSKHKFMVQSMFAPPDTSDMEAVWKEAKPEDLMDSKLRCVFEL
notes: VAPB, Mus musculus, MSP domain, residues 1-125, with K43L and K45L; also called mVAPB K43L/K45L
B5: mouse MIGA2 residues 275-570, S292E/S295D (domain or fragment, mouse (Mus musculus), UniProt Q8BK03 275-570, looked up)
chain: GSLRLRADDEDSLTSEDEFFDATEIFESLQIGEYPLPLSRPAAAYEEALQLVKEGRVPCRTLRTELLGCYSDQDFLAKLHCVRQAFEGLLEERSNQIFFGEVGRQMVTGLMTKAEKSPKGFLESYEEMLSYALRPETWATTRLELEGRGVACMSFFDIVLDFILMDAFEDLENPPSSVLAVLRNRWLSDSFKETALATACWSVLKAKRRLLMVPDGFISHFYSVSEHVSPVLAFGFLGPKPQLSEVCAFFKHQIVQYLRDMFDLDNVRYTSVPALAEDILQLSRRRSEILLGYLGA
B6: MSP domain of mouse VAPB (residues 1-125) (domain or fragment, mouse (Mus musculus), UniProt Q9QY76 1-125, looked up)
chain: MAKVEQVLSLEPQHELKFRGPFTDVVTTNLKLGNPTDRNVCFKVKTTVPRRYCVRPNSGVIDAGASLNVSVMLQPFDYDPNEKSKHKFMVQSMFAPPDTSDMEAVWKEAKPEDLMDSKLRCVFEL
notes: vesicle-associated membrane protein-associated protein B/C (VAPB), mouse, MSP domain, residues 1-125; In the liposome clustering (DLS) and tethered lipid transfer assays a His-tagged form (His-mVAPB) was used; also called mVAPB; wild-type mVAPB
B7: phosphorylated FFAT motif peptide of mouse MIGA2 (residues 289-298) (peptide)
peptide: Ac-SED[pS]FF[pS]ATE-NH2
SMILES: CC(=O)N[C@@H](CO)C(=O)N[C@@H](CCC(=O)O)C(=O)N[C@@H](CC(=O)O)C(=O)N[C@@H](COP(=O)(O)O)C(=O)N[C@@H](Cc1ccccc1)C(=O)N[C@@H](Cc1ccccc1)C(=O)N[C@@H](COP(=O)(O)O)C(=O)N[C@@H](C)C(=O)N[C@H](C(=O)N[C@@H](CCC(=O)O)C(N)=O)[C@@H](C)O
notes: also called mMIGA2^pFFAT; source: synthetic peptide, purified by HPLC

Assays:
[1] = target: T1, zMiga2 (Danio rerio, UniProt Q5BLE2); test: FRET lipid transfer between liposomes; format: biochemical; conditions: labelled compound; 100 nM protein, pH 7.0, room temperature; transport, not chemical turnover
T1 construct: gene miga2; LD targeting domain, residues 310-568; E. coli BL21(DE3); His6 tag cleaved by TEV
T1 sequence (Q5BLE2 310-568): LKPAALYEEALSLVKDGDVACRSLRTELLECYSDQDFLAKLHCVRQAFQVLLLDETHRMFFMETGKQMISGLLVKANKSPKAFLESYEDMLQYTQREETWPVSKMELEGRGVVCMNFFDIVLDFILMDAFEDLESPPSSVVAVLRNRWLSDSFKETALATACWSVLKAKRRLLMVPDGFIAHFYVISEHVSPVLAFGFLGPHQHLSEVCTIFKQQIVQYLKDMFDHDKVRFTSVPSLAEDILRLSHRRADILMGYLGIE

[2] = target: the molecule itself; test: SEC; Superdex 200 increase 10/300 GL, 25 mM Tris-HCl pH 7.5, 150 mM NaCl, 5 mM DTT; proteins injected at 2–4 mg/ml; elution compared with molecular mass standards
[3] = target: T2, mouse MIGA2 residues 275-570 S292E/S295D (mouse, UniProt Q8BK03 275-570, S292E | S295D); test: ITC; mVAPB (wild type or mutant) in the syringe, mMIGA2^275-570 or mMIGA2^pFFAT in the cell; Microcal ITC200, 25 °C, 25 mM Tris-HCl pH 7.5, 150 mM NaCl, 4 mM β-mercaptoethanol; 20 injections of 2 μl; 1:1 binding model; conditions: both partners purified
T2 construct: source: E. coli BL21 (DE3), purified as the wild type (Ni2+-chelated HiTrap, tag cleaved by TEV, size exclusion chromatography)
T2 sequence (looked up): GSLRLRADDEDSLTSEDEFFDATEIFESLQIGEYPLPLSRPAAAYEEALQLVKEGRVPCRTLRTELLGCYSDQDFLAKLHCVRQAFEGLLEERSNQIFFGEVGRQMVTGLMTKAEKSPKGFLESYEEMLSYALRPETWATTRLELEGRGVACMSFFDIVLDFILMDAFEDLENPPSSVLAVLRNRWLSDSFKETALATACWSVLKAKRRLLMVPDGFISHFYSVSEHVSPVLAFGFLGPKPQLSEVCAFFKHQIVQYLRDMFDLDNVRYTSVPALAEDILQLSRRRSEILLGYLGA

[4] = target: T3, mouse MIGA2 residues 275-570 S292E (mouse, UniProt Q8BK03 275-570, S292E); test: as above; conditions: both partners purified
T3 construct: source: E. coli BL21 (DE3), purified as the wild type (Ni2+-chelated HiTrap, tag cleaved by TEV, size exclusion chromatography)
T3 sequence (looked up): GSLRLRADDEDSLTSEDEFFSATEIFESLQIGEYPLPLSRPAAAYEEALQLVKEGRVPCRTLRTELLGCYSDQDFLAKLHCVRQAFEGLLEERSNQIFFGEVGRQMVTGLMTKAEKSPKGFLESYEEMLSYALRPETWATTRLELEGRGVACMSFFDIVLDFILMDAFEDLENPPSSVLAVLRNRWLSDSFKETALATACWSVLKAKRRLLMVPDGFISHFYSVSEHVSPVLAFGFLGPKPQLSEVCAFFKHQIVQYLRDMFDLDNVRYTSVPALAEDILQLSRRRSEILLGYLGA

[5] = target: B7; test: as above; conditions: both partners purified
[6] = target: T4, mouse MIGA2 residues 275-570 S295D (mouse, UniProt Q8BK03 275-570, S295D); test: as above; conditions: both partners purified
T4 construct: source: E. coli BL21 (DE3), purified as the wild type (Ni2+-chelated HiTrap, tag cleaved by TEV, size exclusion chromatography)
T4 sequence (looked up): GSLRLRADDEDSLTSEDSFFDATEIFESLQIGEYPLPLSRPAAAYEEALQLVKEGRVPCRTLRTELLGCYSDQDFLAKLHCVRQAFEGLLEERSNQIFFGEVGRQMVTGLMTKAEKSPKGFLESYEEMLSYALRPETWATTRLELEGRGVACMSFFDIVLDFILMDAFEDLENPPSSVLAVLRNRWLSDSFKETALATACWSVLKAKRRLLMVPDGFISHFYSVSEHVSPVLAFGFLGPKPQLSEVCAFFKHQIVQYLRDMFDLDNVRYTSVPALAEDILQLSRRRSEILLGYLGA

[7] = target: B6; test: cell-based or functional assay
[8] = target: B5; test: ITC; Microcal ITC200, 25 °C, buffer C (25 mM Tris-HCl pH 7.5, 150 mM NaCl, 4 mM β-mercaptoethanol); 20 injections of 2 μl; 1:1 binding model; conditions: both partners purified
[9] = target: T5, mouse MIGA2 residues 275-570, S292E (mouse (Mus musculus), UniProt Q8BK03 275-570, S292E); test: as above; conditions: both partners purified
T5 construct: also called S292E phosphorylation mimic mutant; source: E. coli BL21 (DE3), purified (Ni2+-chelated HiTrap, TEV cleavage, SEC)
T5 sequence (looked up): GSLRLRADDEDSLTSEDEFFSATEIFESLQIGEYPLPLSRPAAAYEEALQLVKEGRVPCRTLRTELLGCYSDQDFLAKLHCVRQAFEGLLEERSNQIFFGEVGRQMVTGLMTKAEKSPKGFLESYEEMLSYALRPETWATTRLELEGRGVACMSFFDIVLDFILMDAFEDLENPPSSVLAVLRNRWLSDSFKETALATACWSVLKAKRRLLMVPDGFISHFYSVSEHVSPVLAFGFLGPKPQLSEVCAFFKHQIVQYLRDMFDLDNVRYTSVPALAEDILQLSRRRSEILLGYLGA

[10] = target: T6, mouse MIGA2 residues 275-570, S295D (mouse (Mus musculus), UniProt Q8BK03 275-570, S295D); test: as above; conditions: both partners purified
T6 construct: also called S295D phosphorylation mimic mutant; source: E. coli BL21 (DE3), purified (Ni2+-chelated HiTrap, TEV cleavage, SEC)
T6 sequence (looked up): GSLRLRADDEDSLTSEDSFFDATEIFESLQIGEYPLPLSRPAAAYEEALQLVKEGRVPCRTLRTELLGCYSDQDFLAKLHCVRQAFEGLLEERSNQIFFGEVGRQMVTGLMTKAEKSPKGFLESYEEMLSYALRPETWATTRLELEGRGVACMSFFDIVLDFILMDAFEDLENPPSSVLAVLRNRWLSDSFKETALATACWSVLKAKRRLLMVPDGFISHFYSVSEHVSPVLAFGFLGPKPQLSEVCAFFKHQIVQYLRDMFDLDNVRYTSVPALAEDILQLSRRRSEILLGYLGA

[11] = target: B4; test: ITC; mVAPB (wild type or mutant) in the syringe, mMIGA2^275-570 or mMIGA2^pFFAT in the cell; Microcal ITC200, 25 °C, 25 mM Tris-HCl pH 7.5, 150 mM NaCl, 4 mM β-mercaptoethanol; 20 injections of 2 μl; 1:1 binding model; conditions: both partners purified
[12] = target: B3; test: as above; conditions: both partners purified

For `CCCCCCCCCCCCCCCC(=O)OC[C@H](COP(=O)(O)O)OC(=O)CCCCCCCCCCCNc1ccc([N+](=O)[O-])c2nonc12` [NBD-PA, 1-palmitoyl-2-{12-[(7-nitro-2-1,3-benzoxadiazol-4-yl)amino]dodecanoyl}-sn-glycero-3-phosphate], the “FRET lipid transfer between liposomes” value [1] was “zMiga2 transfers not only PS, but also PE, PC, and PA”.

`CCCCCCCCCCCCCCCC(=O)OC[C@H](COP(=O)(O)OC[C@H](N)C(=O)O)OC(=O)CCCCCCCCCCCNc1ccc([N+](=O)[O-])c2nonc12` [NBD-PS, 1-palmitoyl-2-{12-[(7-nitro-2-1,3-benzoxadiazol-4-yl)amino]dodecanoyl}-sn-glycero-3-phosphoserine] was tested, and the “FRET lipid transfer between liposomes” value [1] was “zMiga2 transferred PS more rapidly than other phospholipids”.

B1: mouse MIGA2 middle domain, residues 161-300 (domain or fragment, UniProt Q8BK03 161-300, looked up)
chain: GMEESVPTTDGSAESLYVQGMELFEEALQKWEQALSVGQRGDGGSTPTPGDSLQNPDTASEALSEPESQRREFAEKLESLLHRAYHLQEEFGSTFPSDSMLLDLERTLMLPLTEGSLRLRADDEDSLTSEDSFFSATEIF
notes: Oligomer of unstated size by SEC; also called central MIGA2 domain; source: E. coli BL21 (DE3), purified (Ni2+-chelated HiTrap, tag cleaved by TEV, size exclusion chromatography)
B1: binds [2].

B2: MSP domain of mouse VAPB (residues 1-125) (domain or fragment, UniProt Q9QY76 1-125, looked up)
chain: MAKVEQVLSLEPQHELKFRGPFTDVVTTNLKLGNPTDRNVCFKVKTTVPRRYCVRPNSGVIDAGASLNVSVMLQPFDYDPNEKSKHKFMVQSMFAPPDTSDMEAVWKEAKPEDLMDSKLRCVFEL
notes: vesicle-associated membrane protein-associated protein B/C (VAPB), Mus musculus, MSP domain, residues 1-125; Cloned into pGEX-6P-1; the pull-down used a GST-fused form, which is not this molecule; also called mVAPB; mVAPB WT
B2 was tested, and the “stoichiometry N” value [3] was 0.658 ± 0.009, the “stoichiometry N” value [4] was 0.633 ± 0.071 and the “stoichiometry N” value [5] was 0.755 ± 0.07. The “stoichiometry N” value [6] was 0.501 ± 0.013.

For B3, the “stoichiometry N” value [5] was 0.698 ± 0.071.

With B4 the “stoichiometry N” value [5] was 1.04 ± 0.027.

For B5, the “liposome particle size by DLS: donor liposomes pre-anchored with His-mVAPB mixed with acceptor liposomes pre-anchored with His-mMIGA2^275-570 (S292E/S295D), compared with wild-type His-mMIGA2^275-570” value [7] was about 5 fold.

With B6 the Kd [8] was 2.5 ± 0.3 µM, the Kd [9] was 26.4 ± 6.8 µM and the Kd [10] was 8.1 ± 1.5 µM.

B7 was tested, and the Kd [11] was 8.6 ± 1.4 µM and the Kd [12] was 5 ± 0.4 µM.

B8: mouse MIGA2 residues 161-570 (domain or fragment, UniProt Q8BK03 161-570, looked up)
chain: GMEESVPTTDGSAESLYVQGMELFEEALQKWEQALSVGQRGDGGSTPTPGDSLQNPDTASEALSEPESQRREFAEKLESLLHRAYHLQEEFGSTFPSDSMLLDLERTLMLPLTEGSLRLRADDEDSLTSEDSFFSATEIFESLQIGEYPLPLSRPAAAYEEALQLVKEGRVPCRTLRTELLGCYSDQDFLAKLHCVRQAFEGLLEERSNQIFFGEVGRQMVTGLMTKAEKSPKGFLESYEEMLSYALRPETWATTRLELEGRGVACMSFFDIVLDFILMDAFEDLENPPSSVLAVLRNRWLSDSFKETALATACWSVLKAKRRLLMVPDGFISHFYSVSEHVSPVLAFGFLGPKPQLSEVCAFFKHQIVQYLRDMFDLDNVRYTSVPALAEDILQLSRRRSEILLGYLGA
notes: Oligomer of unstated size by SEC; source: E. coli BL21 (DE3), purified (Ni2+-chelated HiTrap, tag cleaved by TEV, size exclusion chromatography)
B8: binds [2].
